# Legend:
# [1] = target: Lyb-2.1 antigen expressed at the surface of B lymphocytes (mouse) (UniProt P21855); experiment: cell-based or functional assay
# [2] = target: MHC class II molecule I-E^d expressed at the surface of A20 cells and mouse splenocytes (mouse) (UniProt P01904); experiment: cell-based or functional assay
# [3] = target: MHC class II molecule I-E^d expressed at the surface of A20 cells and mouse splenocytes (mouse) (UniProt P01904); experiment: flow cytometry on mouse splenocytes, 10 nM complex, B cells gated with anti-CD19-PE
# Sequence of UniProt P01904 (P01904 26-255, chain 1 of 2): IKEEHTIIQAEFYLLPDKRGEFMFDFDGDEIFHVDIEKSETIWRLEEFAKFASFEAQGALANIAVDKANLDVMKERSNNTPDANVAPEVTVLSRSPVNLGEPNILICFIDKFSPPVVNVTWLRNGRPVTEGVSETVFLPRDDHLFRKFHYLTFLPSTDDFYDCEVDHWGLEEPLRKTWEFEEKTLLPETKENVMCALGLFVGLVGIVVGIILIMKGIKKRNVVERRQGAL
# Sequence of UniProt P01904 (P01915 32-264, chain 2 of 2, further chain): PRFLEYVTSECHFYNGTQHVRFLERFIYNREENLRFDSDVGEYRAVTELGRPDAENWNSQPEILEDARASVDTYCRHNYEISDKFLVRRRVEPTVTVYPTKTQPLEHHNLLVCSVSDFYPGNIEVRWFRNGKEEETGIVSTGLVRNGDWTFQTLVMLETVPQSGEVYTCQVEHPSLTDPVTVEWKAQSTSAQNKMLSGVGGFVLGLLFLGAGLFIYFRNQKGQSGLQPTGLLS
# Sequence of UniProt P21855 (P21855 whole entry): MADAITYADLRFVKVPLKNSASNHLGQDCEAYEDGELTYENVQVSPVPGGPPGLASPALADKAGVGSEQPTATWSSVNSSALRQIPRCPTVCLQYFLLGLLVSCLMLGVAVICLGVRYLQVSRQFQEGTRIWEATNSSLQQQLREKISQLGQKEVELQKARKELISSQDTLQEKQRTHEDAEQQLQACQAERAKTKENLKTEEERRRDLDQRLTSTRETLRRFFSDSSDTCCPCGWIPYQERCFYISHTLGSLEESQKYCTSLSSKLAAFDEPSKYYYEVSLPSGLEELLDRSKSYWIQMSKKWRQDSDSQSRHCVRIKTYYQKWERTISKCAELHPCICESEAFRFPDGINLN
Substance,"amount of ZZDTR-BD needed to reach the same level of T4B6 stimulation (IL-2 secretion), A20 cells as APCs, against free ZZDTR-BD [1]","amount of ZZDTR-BD needed to reach the same level of T4B6 stimulation (IL-2 secretion), A20 cells as APCs, against free ZZDTR-BD [2]","amount of ZZDTR-BD needed to reach the same level of T4B6 stimulation (IL-2 secretion), splenocytes as APCs, against free ZZDTR-BD [2]",percent of B lymphocytes labeled [3]
"10-1.D.2/ZZDTR-BD complex (mouse monoclonal IgG2a 10-1.D.2, anti-Lyb-2.1, complexed with ZZDTR-BD)",3.8 times lower,–,–,–
"14-4-4S/ZZDTR-BD complex (mouse monoclonal IgG2a 14-4-4S, anti-MHC class II I-E^d, complexed with ZZDTR-BD)",–,13.4 times lower,5.2 times lower,68.5%
